This is an account of results in the supplement of paper PMC9170038.

In the series the test system is MS2 coat protein. Put plainly: apparent KD of MS2 coat protein; designed switch direction (-1 OFF switch, 1 ON switch): -1; higher = weaker reporter binding. In short, it runs like this: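 The buffer was Tris-HCl pH 7.5 with KCl, MgCl2, BSA, DTT, tRNA and Tween-20. In it, SNAP-549-labelled MS2 coat protein was titrated in doubling steps from 0.7 or 1.5 nM to 3 µM over chip-bound RNA switches transcribed by stalled E. coli RNA polymerase on Illumina chips. Apparent KD is the per-design median over clusters of curve fits to normalised fluorescence.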

The mark [1] stands for this setting: Eterna round: R95, input ligand: microRNA oligo, concentration not stated.
The mark [2] stands for this setting: input ligand: microRNA oligo, concentration not stated.

On to “AUAAUGUGAGGAUAUCACGGCCCGAUGAGUACGGUAAACGAUGAGAAGGCACAUGAGGAUCACCCAUGUUCCUG [EX4 A.15] (Eterna round: R97, puzzle: Exclusion 4)”, for which the “apparent KD of MS2 coat protein” value (input ligand: FMN 200 uM) is 47.8 nM and the “apparent KD of MS2 coat protein” value (input ligand: none) came out at 11.4 nM.

For the sequence “AUAAUGUGAGGAUAUCAGUCGACUAGCCUCGGCUAGUCGACUGAGAAGGCACAUGAGGAUCACCCAUGUGUUUC [E4/15-A2] (Eterna round: R97, puzzle: Exclusion 4)”, the “apparent KD of MS2 coat protein” value is, setting by setting: (input ligand: FMN 200 uM) 43.9 nM; (input ligand: none) 18.4 nM.

With “AUAAUGUGAGGAUAUCAGUCGACUAGCCUCGGCUAGUCGACUGAGAAGGUACAUGAGGAUCACCCAUGUAGAUC [E4/20-A2] (Eterna round: R97, puzzle: Exclusion 4)”, the “apparent KD of MS2 coat protein” value reads like this: (input ligand: FMN 200 uM) 84.3 nM; (input ligand: none) 26.4 nM.

“AUAAUGUGAGGAUAUCAGUCGACUAGCCUCGGCUAGUCGACUGAGAAGGUACAUGAGGAUCACCCAUGUGGUUC [E4/11-B2] (Eterna round: R97, puzzle: Exclusion 4)”: the “apparent KD of MS2 coat protein” value runs as follows: (input ligand: FMN 200 uM) 882 nM; (input ligand: none) 429 nM.

As for “AUAAUGUGAGGAUAUCAGUCGACUAGCGAUAGCUAGUCGACUGAGAAGGUACAUGAGGAUCACCCAUGUAGAUC [E4/20-A4] (Eterna round: R97, puzzle: Exclusion 4)”, the “apparent KD of MS2 coat protein” value runs as follows: (input ligand: FMN 200 uM) 70.6 nM; (input ligand: none) 31 nM.

For the sequence “AUAAUGUGAGGAUAUCGAGACUACUGCUUCGGCAGUAGUCUCGAGAAGGCACAUGAGGAUCACCCAUGUGAUCA [E4/2-A1] (Eterna round: R97, puzzle: Exclusion 4)”, the “apparent KD of MS2 coat protein” value was 56.6 nM (input ligand: FMN 200 uM) and 685 nM (input ligand: none).

On to “AUACCACGAGGAUAUCGACUAUACCACAUGAGGAUCACCCAUGUUAUCCAUGUUUCGUUUCGAGAAGGCGUGGGUU [JR_E5_Sub073] (puzzle: Exclusion 5)”, for which the “apparent KD of MS2 coat protein” value under setting [1] was determined as 32.3 nM.

With “AUAGAUCGAGUUAGGAUAUUGCAGGCCGAGUACAGCAAGAAGGAACAUGAGGAUCACCCAUGUAAACGUGGCUC [Eternabot (L1) Solution 53] (Eterna round: R97, puzzle: Brourd's mod of Exclusion 4)”, the “apparent KD of MS2 coat protein” value is, setting by setting: (input ligand: FMN 200 uM) 25.9 nM; (input ligand: none) 17.7 nM.

As to “AUAGGAGGAGGAUAUACAUGAGGAUCACCCAUGUGAUCGCCGUAAAAUGCAGUUAGACGUAGAAGGUCUCCCGG [Eternabot (L2) Solution 77] (Eterna round: R97, puzzle: Exclusion 3)”, the “apparent KD of MS2 coat protein” value by setting is: (input ligand: FMN 200 uM) 36.8 nM; (input ligand: none) 34.7 nM.

For “AUAUAGAUAGUCAGGAUAUGCUAGUGAUAACAGUAGCAGAAGGGACAUGAGGAUCACCCAUGUGGAUAGCGCAC [Brourd's EX4 #5] (Eterna round: R97, puzzle: Brourd's mod of Exclusion 4)”, the “apparent KD of MS2 coat protein” value reads like this: (input ligand: FMN 200 uM) 139 nM; (input ligand: none) 39.7 nM.

For “AUAUAGAUGGUCAGGAUAUGCUAGUGAUAACAGUAGCAGAAGGGACAUGAGGAUCACCCAUGUGGAUACCGCAC [Brourd's EX4 #7] (Eterna round: R97, puzzle: Brourd's mod of Exclusion 4)”, the “apparent KD of MS2 coat protein” value by setting is: (input ligand: FMN 200 uM) 122 nM; (input ligand: none) 31.9 nM.

Consider “AUAUUAAUAGUAAGGAUAUGCGUAUAUAUAAUUAUGCAGAAGGUACAUGAGGAUCACCCAUGUAUUAAUGUGUA [LRO-BmodExc4-02-Oppy's Opus] (Eterna round: R97, puzzle: Brourd's mod of Exclusion 4)”, for which the “apparent KD of MS2 coat protein” value is, setting by setting: (input ligand: FMN 200 uM) 13.5 nM; (input ligand: none) 13 nM.

Regarding “AUAUUAAUAUAGGAUAUCGAAUUUAUUAAUUAUCGAGAAGGAUAAACAUGAGGAUCACCCAUGUGGUAUCAUGG [Mat - Exclusion 6 - JL Mod - D39] (puzzle: Exclusion 6)”, under setting [1], the “apparent KD of MS2 coat protein” value worked out at 256 nM.

For “AUCAGCUCGUCAGGAUAUGCACAUGAGGAUCACCCAUGUAAGAUCAAGCUGCUUCGGCAGCAAGUGCAGAAGGGACGAGCUGAU [ENG2/9-B2] (Eterna round: R96, puzzle: Exclusion NG 2)”, the “apparent KD of MS2 coat protein” value is, setting by setting: (input ligand: FMN 200 uM) 151 nM; under setting [2], 177 nM; (input ligand: none) 229 nM.

As for “AUCAGCUCGUGAGGAUAUACAUGAGGAUCACCCAUGUGGUCAAUAGCAGCUUCGGCUGCAUACAUGUAGAAGGCACGAGCUGAU [ENG2/7-A2] (Eterna round: R96, puzzle: Exclusion NG 2)”, the “apparent KD of MS2 coat protein” value came out at 36.6 nM (input ligand: FMN 200 uM), 58.5 nM under setting [2] and 30.1 nM (input ligand: none).

As for “AUCAGCUCGUGAGGAUAUAUAUACAUGAGGAUCACCCAUGUAAGAUCAGGCUUCGGCCAAUGUAUAUAGAAGGCACGAGCUGAU [ENG2/11-A3] (Eterna round: R96, puzzle: Exclusion NG 2)”, the “apparent KD of MS2 coat protein” value by setting is: (input ligand: FMN 200 uM) 403 nM; under setting [2], 535 nM; (input ligand: none) 808 nM.

As to “AUCGUGCAGCUUUGCUGUACGAGUACAUGAGGAUCACCCAUGUAGGAUAUGGUACGCUUUGCGUGCUAGAAGGAUAUGUGUUAG [EX ENG3 1.43] (Eterna round: R96, puzzle: Exclusion NG 3)”, the “apparent KD of MS2 coat protein” value (input ligand: FMN 200 uM) was 46.6 nM, the “apparent KD of MS2 coat protein” value under setting [2] was 34.8 nM and the “apparent KD of MS2 coat protein” value (input ligand: none) is 44.2 nM.

As to “AUCUAGUCAGGAUAUACGAACCGAUGAAUCGGACGGAACGAACAUGAGGAUCACCCAUGUAGAAGGGACACUCA [Candy Rainbow 2] (puzzle: Exclusion 2)”, the “apparent KD of MS2 coat protein” value under setting [1] is 142 nM.

As to “AUCUCCUCUGUCAGGAUAUAUAAACUGUUGCAGUGGUAGAAGGGACAUGAGGAUCACCCAUGUAAUAUAAAUAA [Bivege] (puzzle: Brourd's mod of Exclusion 4)”, the “apparent KD of MS2 coat protein” value under setting [1] was 26.6 nM.

For “AUGCCCUGAGGAUAUCUCAUCCCGCACAUGAGGAUCACCCAUGUUCUCCUCCGGGCUCCGAGAGAAGGCAGGCCUA [Armus7] (Eterna round: R97, puzzle: Exclusion 5)”, the “apparent KD of MS2 coat protein” value was found to be 80.1 nM (input ligand: FMN 200 uM) and 53.5 nM (input ligand: none).

Take “AUGCGCAAGCUUUUUGUUCACAUGAGGAUCACCCAUGUUAUGGUCGCCUGUGAGGAGCGAUAGCGUCUCCGACCUGA [Eternabot (Original) Solution 31] (Eterna round: R97, puzzle: Sensor, turn-off variant 1)”: the “apparent KD of MS2 coat protein” value reads like this: (input ligand: FMN 200 uM) 35.7 nM; (input ligand: none) 36.5 nM.

“AUGGACGCAGGAUAUACAUGAGGAUCACCCAUGUGAGGUAGGUAAGUAGGAAGUGAAGGUAGAAGGGCGAGAGA [JR_Exclu3_Sub096] (puzzle: Exclusion 3)”: under setting [1], the “apparent KD of MS2 coat protein” value came to 59.4 nM.

For the sequence “AUGGGUACUUUCGGAGCGACAUGAGGAUCACCCAUGUAUGUUGAGGAUAUCCACUGCUAAGGACGGGAGAAGGCAGUGUACUGU [Ex NG3 #83] (Eterna round: R96, puzzle: Exclusion NG 3)”, the “apparent KD of MS2 coat protein” value is, setting by setting: (input ligand: FMN 200 uM) 26.1 nM; under setting [2], 16 nM; (input ligand: none) 26.4 nM.

As for “AUGUGACAUGAGGAUCACCCAUGUCAGGAUAUUUCCAAAAUAAAAUAAAACCGCGUGGAAAGAAGGGACGUGGU [EX1 A.8] (Eterna round: R97, puzzle: Exclusion 1)”, the “apparent KD of MS2 coat protein” value (input ligand: FMN 200 uM) was found to be 23.4 nM and the “apparent KD of MS2 coat protein” value (input ligand: none) turned out to be 21.7 nM.

For “AUGUUGCGAGGAUAUAUAAGGAGGUUAAAAUUUAUUAUGGAACAUGAGGAUCACCCAUGUAGAAGGUGCAUAAC [JR_Ex2_Sub038] (Eterna round: R97, puzzle: Exclusion 2)”, the “apparent KD of MS2 coat protein” value (input ligand: FMN 200 uM) turned out to be 49.6 nM and the “apparent KD of MS2 coat protein” value (input ligand: none) came to 55.7 nM.

Turning to “AUUAAACAUGUAGGAUAUGCGUGGCAAAGCUAUGCAGAAGGACAUGAGGAUCACCCAUGUAAAAGCGUCUGCGUACAGAUGCAA [Mat - Exclusion NG 1 - Mod of JL - D86] (Eterna round: R96, puzzle: Exclusion NG 1)”, the “apparent KD of MS2 coat protein” value is, setting by setting: (input ligand: FMN 200 uM) 314 nM; under setting [2], 30.7 nM; (input ligand: none) 41.3 nM.

In the case of “AUUAGCGUAGGAUAUUAGUACAUGUACAUGAGGAUCACCCAUGUGAGGUGAGUCUUAGAUUAAGAAGGGCGAAGAA [EX5 #34] (Eterna round: R97, puzzle: Exclusion 5)”, the “apparent KD of MS2 coat protein” value is 309 nM (input ligand: FMN 200 uM) and 704 nM (input ligand: none).

“AUUAUGUUAGGAUAUGCUUAUGGUGGAUAGUCCAAUGUGGUGCAGAAGGGACAUGAGGAUCACCCAUGUACUGA [EX4 #29] (Eterna round: R97, puzzle: Exclusion 4)”: the “apparent KD of MS2 coat protein” value is, setting by setting: (input ligand: FMN 200 uM) 70.5 nM; (input ligand: none) 58.6 nM.

For the sequence “AUUGUUUAUGUAGGAUAUGCCUGGCGUGCCUUUGCAGAAGGACAUGAGGAUCACCCAUGUAUUGCGGUCUGCGUUCAGAUCGCG [salish99_ExNG1_r4_034] (Eterna round: R96, puzzle: Exclusion NG 1)”, the “apparent KD of MS2 coat protein” value (input ligand: FMN 200 uM) stood at 46.9 nM, the “apparent KD of MS2 coat protein” value under setting [2] came out at 22.5 nM and the “apparent KD of MS2 coat protein” value (input ligand: none) was determined as 27.4 nM.

On to “AUUUACGGAGGAUAUACUUGAGGAUCACCCAAGUGGAGUCCCGUUUGGGCGGUAAAUAGUAGAAGGCCGUCCUA [jl-ex3-4.46 ViennaUCT mod] (Eterna round: R97, puzzle: Exclusion 3)”, for which the “apparent KD of MS2 coat protein” value is 27.7 nM (input ligand: FMN 200 uM) and 16.2 nM (input ligand: none).

As for “AUUUAUAAUGUAGGAUAUGGAUUCGAAACGUAUCCAGAAGGACAUGAGGAUCACCCAUGUACAUGAGGAUCACCCAAUUUAUUA [Fiskers ExNg1 - 10] (Eterna round: R96, puzzle: Exclusion NG 1)”, the “apparent KD of MS2 coat protein” value (input ligand: FMN 200 uM) worked out at 98 nM, the “apparent KD of MS2 coat protein” value under setting [2] came out at 46.7 nM and the “apparent KD of MS2 coat protein” value (input ligand: none) was determined as 59.3 nM.

In the case of “AUUUUGUCAGGAUAUGACUAGUAGGACGAGAGUGCUACUACUUAGAAGGGACAUGAGGAUCACCCAUGUAUUCC [Bring Us a Shrubbery-09] (puzzle: Exclusion 4)”, under setting [1], the “apparent KD of MS2 coat protein” value was determined as 14.1 nM.
